# Literature values, collected in paper PMC3281059.
# Target: actin monomer (UniProt P68133)
substance,measurement,value
WCA domain WCA (from UniProt O00401),Kd,600 nM
